We go through seven proteins from patent publication US20250027068.

Substitutions are numbered along the chain they refer to.

The labels stand for the following.
B1: PRT-25 (protein)
chain: MANQEIRYSEVTPYHVTSVWTKGVTPPANFTQGEDVFHAPYVANQGWYDITKTFNGKDDLLCGAATAGNMLHWWFDQNKDQIERYLKEHPEKQKINFNGEQMFDVKEAIDTKDSQTDSKLFEYFKEKAFPYLSTKHLGVFPDHVIDMFINGYRLSLTNHGPTPVKEGSKDPRGGIFDAVFTRGDQSKLLTSRHDFKEKNLKEISDLIKQELTEGKALGLSHTYANVRINHVINLWGADFDSNGNLEAIYVTDSDSNASIGMKKYFVGVNSAGKVAISAKEIEEDNIGAQVLGLFTLSTGQDIWNQTN
B2: PRT-322 (protein)
chain: MTITSVWTKGVTPPTPEDFRENNEDVLHAPYVANQGWYDITKTFDGKDNLLCGAATAGNMLHWWFDQNKEEIERYLKKHPEKQKIIFNNQELFDVKAAIDTKDSQTNSKLFDYFRDKAFPNLSARQLGVMPDLVLDMFINGYYLNLGKTQSTDVNRPYQDKDKRGGIFDAVFTRGDQTTLLTARHDLKNKGLNEISDLIKQELTEGKALALSHTYANVRINHVINLWGADFDAEGNLIAIYVTDSDANASIGMKKYFVGRNANGKVAISAKKIEGDNIGAQVLGLFTLSTGQDQWQKLS
B3: PRT-330 (protein)
chain: B2 chain with N88G, N121G, M130F, D176V
B4: PRT-290 (protein)
chain: MVTSVWTKGVTPPADFTQGEDVFHAPYVANQGWYDITKTFNGKDDLLCGAATAGNMLHWWFDQNKEYIEAYLKKHPEKQKIMFGDQELLDVRKAINTKGSQKNSELFNYFRDKAFPNLSARRLGVMPDLVLDMFINGYYLNVTKTQTTDVNRTYQEKDKRGGIFDAVFTRGDQSKLLTSRHDFKEKGLKEISDLIKQELTEGKALGLSHTYANVRIGHVINLWGADFDSDGNLKAIYVTDSDSNASIGMKKYFVGVNSSGKVAISAKEIKEDNIGAQVLGLFTLSTGQDIWNQTN
B5: PRT-306 (protein)
chain: B4 chain with A14T, T17I, Q18K, V28D, N30G, T39E, F253G, S259A
B6: PRT-298 (protein)
chain: B4 chain with A14T, T17I, Q18K, V28K, N30G, R215G, G217N
B7: PRT-314 (protein)
chain: MQITSVWTKGVTPLTPEQFRENNEDVIHAPYLAHQGWYDITKAFDGKDNLLCGAATAGNMLHWWFDQNKTEIEAYLSKHPEKQKIIFGNQELFDLKAAIDTKDSQTNSQLFDYFRDKAFPNLSARQLGVMPDLVLDMFINGYYLNVGKTQSTDVNRPYQDKDKRGGIFDAVFTRGDQTTLLTARHDLKNKGLNDISTIIKQELTEGRALALSHTYANVSISHVINLWGADFNAEGELEAIYVTDSDANPSIGMKKYFVGRNAHGHVAISAKKIEGENIGAQVLGLFTLSSGKDQWQKLS

This data set addresses pooled human IgG.
On to B1, for which the Enzyme Activity Endpoint Assay: Fab′2 is 56 ng/µL, the Enzyme Activity Endpoint Assay: Fc was found to be 123 ng/µL, the Enzyme Activity Endpoint Assay: IgG is 20 ng/µL and the Enzyme Activity Endpoint Assay: scIgG turned out to be 0 ng/µL.

As for B2, the Enzyme Activity Endpoint Assay (purified): Fab'2 was 506 ng/µL, the Enzyme Activity Endpoint Assay (purified): Fc came out at 381 ng/µL, the Enzyme Activity Endpoint Assay (purified): IgG was 387 ng/µL and the Enzyme Activity Endpoint Assay (purified): scIgG was determined as 0 ng/µL.

In the case of B3, the Enzyme Activity Endpoint Assay (purified): Fab'2 was determined as 493 ng/µL, the Enzyme Activity Endpoint Assay (purified): Fc is 369 ng/µL, the Enzyme Activity Endpoint Assay (purified): IgG amounted to 352 ng/µL and the Enzyme Activity Endpoint Assay (purified): scIgG was found to be 0 ng/µL.

In turn, B4 registered an Enzyme Activity Endpoint Assay (purified): Fab'2 of 191 ng/µL, an Enzyme Activity Endpoint Assay (purified): Fc of 151 ng/µL, an Enzyme Activity Endpoint Assay (purified): IgG of 179 ng/µL and an Enzyme Activity Endpoint Assay (purified): scIgG of 0 ng/µL.

The protein B5 returned an Enzyme Activity Endpoint Assay (purified): Fab'2 of 467 ng/µL, an Enzyme Activity Endpoint Assay (purified): Fc of 336 ng/µL, an Enzyme Activity Endpoint Assay (purified): IgG of 341 ng/µL and an Enzyme Activity Endpoint Assay (purified): scIgG of 0 ng/µL.

On to B6, for which the Enzyme Activity Endpoint Assay (purified): Fab'2 was found to be 494 ng/µL, the Enzyme Activity Endpoint Assay (purified): Fc is 240 ng/µL, the Enzyme Activity Endpoint Assay (purified): IgG worked out at 147 ng/µL and the Enzyme Activity Endpoint Assay (purified): scIgG was 35 ng/µL.

As for B7, the Enzyme Activity Endpoint Assay (purified): Fab'2 came out at 599 ng/µL, the Enzyme Activity Endpoint Assay (purified): Fc stood at 286 ng/µL, the Enzyme Activity Endpoint Assay (purified): IgG came to 101 ng/µL and the Enzyme Activity Endpoint Assay (purified): scIgG worked out at 174 ng/µL.
